# In publication PMC13044988, “Vaspin identified as a DNA‐binding serpin with functional consequences for protease inhibition”:
# Numbering of substitutions follows the chain as printed.
# T1: vaspin WT (Homo sapiens, UniProt Q8IW75 21-414)
# T1 sequence: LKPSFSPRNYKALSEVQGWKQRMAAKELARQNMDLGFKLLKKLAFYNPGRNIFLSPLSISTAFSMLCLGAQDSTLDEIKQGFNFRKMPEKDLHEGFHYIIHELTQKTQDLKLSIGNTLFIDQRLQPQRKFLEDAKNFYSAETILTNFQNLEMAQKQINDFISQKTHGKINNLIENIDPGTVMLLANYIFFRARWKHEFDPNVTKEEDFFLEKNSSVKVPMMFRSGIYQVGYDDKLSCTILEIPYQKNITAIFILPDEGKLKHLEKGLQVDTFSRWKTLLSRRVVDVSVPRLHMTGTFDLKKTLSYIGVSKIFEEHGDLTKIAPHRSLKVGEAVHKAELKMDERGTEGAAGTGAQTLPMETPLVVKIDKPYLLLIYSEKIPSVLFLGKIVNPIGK
# T2: NHB vaspin (nonheparin-binding) (Homo sapiens, UniProt Q8IW75 21-414, K131A;K188A;R211A;K359A;R363A)
# T2 sequence: T1 sequence with K111A, K168A, R191A, K339A, R343A
# T3: antichymotrypsin (ACT) (Homo sapiens, UniProt P01011 24-423)
# T3 sequence: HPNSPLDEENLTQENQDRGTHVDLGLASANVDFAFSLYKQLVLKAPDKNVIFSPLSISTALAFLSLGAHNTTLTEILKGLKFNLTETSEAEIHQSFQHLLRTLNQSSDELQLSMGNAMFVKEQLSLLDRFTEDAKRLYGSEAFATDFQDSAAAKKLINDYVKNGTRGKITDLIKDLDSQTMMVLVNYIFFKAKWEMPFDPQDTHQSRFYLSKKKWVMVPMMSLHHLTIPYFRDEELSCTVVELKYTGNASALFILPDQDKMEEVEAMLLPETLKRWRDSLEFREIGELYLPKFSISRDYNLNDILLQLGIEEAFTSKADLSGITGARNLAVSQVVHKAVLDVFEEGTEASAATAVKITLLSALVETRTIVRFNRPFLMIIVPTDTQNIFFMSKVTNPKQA
# B1: 60 base ssDNA (ssDNA)
# DNA: GACGGATCGGGAGATCTCCCGATCCCCTATGGTGCACTCTCAGTACAATCTGCTCTGATG
# B2: 120 base ssDNA (ssDNA)
# DNA: GACGGATCGGGAGATCTCCCGATCCCCTATGGTGCACTCTCAGTACAATCTGCTCTGATGCCGCATAGTTAAGCCAGTATCTGCTCCCTGCTTGTGTGTTGGAGGTCGCTGAGTAGTGCG
# Experiments:
# vaspin WT = biological target: T1, vaspin WT; experiment: DRaCALA; Buffer 2; DRaCALA: Buffer 2, 20 mM Tris/HCl pH 7.8, 15 mM NaCl, 50 nM labeled ssDNA, 10 min at 20 C; screening also in Buffer 1 (20 mM Tris/HCl pH 7.8, 150 mM NaCl) and Buffer 3 (20 mM Tris/HCl pH 7.8, 15 mM KCl); details: protein: recombinant; label: 5'-32P
# KLK7 (kallikrein 7) = KLK7 (kallikrein 7) (Homo sapiens, UniProt P49862 30-253); experiment: as above; details: protein: recombinant; label: 5'-32P
# Chain of KLK7 (kallikrein 7) (P49862 30-253): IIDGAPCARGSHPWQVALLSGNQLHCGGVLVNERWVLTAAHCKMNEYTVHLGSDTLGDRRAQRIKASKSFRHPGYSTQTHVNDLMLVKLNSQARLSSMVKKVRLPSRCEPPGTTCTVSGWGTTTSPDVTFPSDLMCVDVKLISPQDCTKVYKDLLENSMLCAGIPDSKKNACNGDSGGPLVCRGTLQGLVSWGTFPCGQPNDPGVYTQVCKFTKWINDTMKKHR
# [1] = biological target: T2, NHB vaspin (nonheparin-binding); experiment: as above; details: protein: recombinant; label: 5'-32P
# antichymotrypsin (ACT) = biological target: T3, antichymotrypsin (ACT); experiment: DRaCALA; Buffer 1 (150 mM NaCl), 1 uM protein; DRaCALA: Buffer 2, 20 mM Tris/HCl pH 7.8, 15 mM NaCl, 50 nM labeled ssDNA, 10 min at 20 C; screening also in Buffer 1 (20 mM Tris/HCl pH 7.8, 150 mM NaCl) and Buffer 3 (20 mM Tris/HCl pH 7.8, 15 mM KCl); details: label: 5'-32P
Binder,Kd (vaspin WT),Kd (KLK7 (kallikrein 7)),Kd [1],binding result (antichymotrypsin (ACT))
B1,117 nM,815 nM,188 nM,no binding
B2,128 nM,1070 nM,178 nM,
GACGGATCGGGAGATCTCCC (ssDNA) [20 base ssDNA],59 nM,2070 nM,269 nM,
